In test [1] the target is T1, Recombinant receptor-binding motif (RBM, residues 437-508) of SARS-CoV-2 spike (S) protein with N-terminal … (SARS-CoV-2, UniProt P0DTC2 437-508).
Test [2] addresses T1, Recombinant receptor-binding motif …. This is another data set of the same source.
For test [3] the target is unchanged. The source holds these as a separate data set.
For another test, the target named is T2, TN.
T2 single chain: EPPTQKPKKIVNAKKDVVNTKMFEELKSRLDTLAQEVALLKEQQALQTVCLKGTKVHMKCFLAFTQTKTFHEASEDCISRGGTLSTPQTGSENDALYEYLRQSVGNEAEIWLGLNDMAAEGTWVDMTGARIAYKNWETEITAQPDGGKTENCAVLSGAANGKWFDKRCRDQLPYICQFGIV

Numbering of substitutions follows the chain as printed. Where two headings read alike, the source gives them in different places.

B1: Clone 27B12 (mAb8) (antibody, V domains shown)
VH: DVKLVESGGGLVKLGGSLKLSCAASGFTFSTDYMSWVRQSPEKRLELVAAINSNGGTTYYPDTVKGRFIISRDNAKNTLYLQMSSLRSEDTALYYCARQVKNGLDYWGQGTSVTVSS
VL: DIQMTQTTSSLSASLGDRVTISCRASQDISNYLNWYQQKPDGTVKLLIYKTSRLHSGVPSRFRGSGSGTDYSLTISNLEEEDVATYFCQQGNTLPPTFGGGTKLEIK
Turning to B1, the Kd in test [1] amounted to 17.4 nM; in test [2] it was 57.4 nM; in test [3] it was 17.4 nM; in the test with TN it was 2.02 nM.

B2: Clone 18B1 (mAb2) (antibody, V domains shown)
VH: B1 VH with K13N, T31S, S40I, I69T, R87K, V100G, L104M
VL: B1 VL with Y32H, K39R, K50Y, R63S, L73F, S76T, E79D, E80Q, V83I, N92K
For the molecule B2, the Kd was 62.8 nM in test [1], 62.8 nM in test [3] and 0.114 nM in the test with TN.

B3: 23F6 (mAb5) (antibody, V domains shown)
VH: B1 VH with T31S, D32S, S40T, S53N, I69T, R87K, A97T, V100G
VL: B1 VL with S30G, Y32L, Y49S, K50Y, R63S, S76T, E80Q, V83I, G91A, T102S
In the test with TN, B3 registered a Kd of 8.03 nM.

B4: Clone 25B2 (mAb6) (antibody, V domains shown)
VH: B1 VH with K3N, A24D, T31S, D32Y, S40T, T57R, I69T, R87K, V100G
VL: B1 VL with Y32H, V44I, K50Y, R63S, Y71F, T74S, E80Q, V83I, N92K
On to B4, for which the Kd in test [1] is 180 nM; in test [3] it was 180 nM; with TN, 0.915 nM.

Values taken from patent US20230287090A1 (FEINSTEIN INSTITUTES FOR MEDICAL RESEARCH, published 2023).
